T1: full-length UVR8 (UV … LOCUS8) (Arabidopsis thaliana), Q9FN03
T1 chain: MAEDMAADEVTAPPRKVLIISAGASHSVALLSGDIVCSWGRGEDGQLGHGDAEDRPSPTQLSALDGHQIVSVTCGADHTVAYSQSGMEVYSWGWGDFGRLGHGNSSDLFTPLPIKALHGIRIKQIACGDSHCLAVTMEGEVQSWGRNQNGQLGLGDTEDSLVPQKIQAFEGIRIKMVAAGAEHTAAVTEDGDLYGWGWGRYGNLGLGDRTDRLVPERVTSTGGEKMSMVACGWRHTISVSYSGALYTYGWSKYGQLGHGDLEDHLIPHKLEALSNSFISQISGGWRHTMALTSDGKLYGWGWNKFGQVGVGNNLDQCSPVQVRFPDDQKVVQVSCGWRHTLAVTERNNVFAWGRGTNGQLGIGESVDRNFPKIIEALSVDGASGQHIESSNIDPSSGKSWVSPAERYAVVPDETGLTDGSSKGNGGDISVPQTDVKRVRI


Tests used:
[1] = biological target: T1, full-length UVR8 (UV … LOCUS8) …; assay: native MS; native ion mobility MS with nESI, sample in 250 mM ammonium acetate pH 6.8, 5–20 μM UVR8, in the absence of UV-B light; conditions: remark: other sources report otherwise
[2] = biological target: the molecule itself; assay: as above

| Binder | stoichiometry N [1] | stoichiometry N [2] |
| --- | --- | --- |
| full-length UVR8 (UV … LOCUS8), Q9FN03 1-440 (natural protein) MAEDMAADEVTAPPRKVLIISAGASHSVALLSGDIVCSWGRGEDGQLGHGDAEDRPSPTQLSALDGHQIVSVTCGADHTVAYSQSGMEVYSWGWGDFGRLGHGNSSDLFTPLPIKALHGIRIKQIACGDSHCLAVTMEGEVQSWGRNQNGQLGLGDTEDSLVPQKIQAFEGIRIKMVAAGAEHTAAVTEDGDLYGWGWGRYGNLGLGDRTDRLVPERVTSTGGEKMSMVACGWRHTISVSYSGALYTYGWSKYGQLGHGDLEDHLIPHKLEALSNSFISQISGGWRHTMALTSDGKLYGWGWNKFGQVGVGNNLDQCSPVQVRFPDDQKVVQVSCGWRHTLAVTERNNVFAWGRGTNGQLGIGESVDRNFPKIIEALSVDGASGQHIESSNIDPSSGKSWVSPAERYAVVPDETGLTDGSSKGNGGDISVPQTDVKRVRI | 2 | – |
| UVR8 core domain (residues 12–381, UVR8^12–381) (domain or fragment, Arabidopsis thaliana, UniProt Q9FN03 12-381, looked up, Homodimer in the dark, monomer after UV-B; also called truncated UVR8; source: E. coli Rosetta 2 (DE3) pLysS, purified (Ni-NTA, Strep-Tactin XT, cleaved from the resin with SUMO protease); not shown: 7xHis, N-terminal, cleaved; Strep II, N-terminal, cleaved; SUMO, N-terminal, cleaved) APPRKVLIISAGASHSVALLSGDIVCSWGRGEDGQLGHGDAEDRPSPTQLSALDGHQIVSVTCGADHTVAYSQSGMEVYSWGWGDFGRLGHGNSSDLFTPLPIKALHGIRIKQIACGDSHCLAVTMEGEVQSWGRNQNGQLGLGDTEDSLVPQKIQAFEGIRIKMVAAGAEHTAAVTEDGDLYGWGWGRYGNLGLGDRTDRLVPERVTSTGGEKMSMVACGWRHTISVSYSGALYTYGWSKYGQLGHGDLEDHLIPHKLEALSNSFISQISGGWRHTMALTSDGKLYGWGWNKFGQVGVGNNLDQCSPVQVRFPDDQKVVQVSCGWRHTLAVTERNNVFAWGRGTNGQLGIGESVDRNFPKIIEALSVDG | – | 2 |

Source: PMC6347689, “Native mass spectrometry reveals the conformational diversity of the UVR8 photoreceptor” (Proceedings of the National Academy of Sciences of the …, 2019)
